± gives the uncertainty stated by the source.
Assay: protein stability index of a GFP-peptide fusion (yeast GPS) (PSI 1-4); higher = more stable; sorted into four equal gates, so the index is relative within each strain
Outline: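 Yeast carrying a pooled library were grown to mid-log phase in leucine-free medium. Each library plasmid expresses Cherry and has a tiled 17-residue yeast protein peptide fused downstream of GFP. Cells were sorted into four equal gates by GFP/Cherry ratio, and plasmids from each gate were PCR-amplified, Illumina-sequenced and assigned to strains by barcode. Summing, across gates, the read frequency times the gate number gave each peptide's protein stability index.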

| Sequence | protein stability index (doa10∆) | protein stability index (pdr5∆) | protein stability index (san1∆) | protein stability index (ubr1∆) |
| --- | --- | --- | --- | --- |
| QVVVDAITNTGPREDTT [RPS5] | 2.95 ± 0.064 | 2.95 ± 0.058 | 2.82 ± 0.064 | 2.73 ± 0.042 |
| QWLNNALKRSYGIFGEG [POP8] | 2.8 ± 0.08 | 3.02 ± 0.059 | 3.08 ± 0.07 | 3.15 ± 0.071 |
| QYATVSKTHKTVSRAYG [RPL34A] | 2.05 ± 0.069 | 2.31 ± 0.055 | 2.41 ± 0.065 | 2.34 ± 0.06 |
| RAASIRARVKAFPKDDR [RPL3] | 1.22 ± 0.035 | 1.46 ± 0.051 | 1.27 ± 0.078 | 1.5 ± 0.039 |
| RADTDLAMNDDDFLSKK [SNF2] | 3.35 ± 0.094 | 3.59 ± 0.079 | 3.22 ± 0.076 | 3.42 ± 0.067 |
| RAGVTHVLSRLSYISAL [RET1] | 1.47 ± 0.074 | 1.26 ± 0.068 | 1.22 ± 0.11 | 1.23 ± 0.081 |
| RAINKVLCTRLRLSNFF [SIR2] | 1.72 ± 0.059 | 1.3 ± 0.059 | 1.18 ± 0.12 | 1.08 ± 0.034 |
| RAQVLSLGDGTNYYLTT [CSL4] | 2.6 ± 0.061 | 2.66 ± 0.05 | 2.79 ± 0.048 | 3.08 ± 0.072 |
| RARKDRMRVSVLEKYEV [SSN3] | 2.02 ± 0.11 | 2.65 ± 0.089 | 2.19 ± 0.13 | 1.97 ± 0.039 |
| RATTYEKLTMVFQDNVY [SIN4] | 2.2 ± 0.065 | 2.48 ± 0.051 | 2.21 ± 0.11 | 2.53 ± 0.057 |
| RDDALVVETITSLLNKV [RRP42] | 2.88 ± 0.071 | 2.83 ± 0.048 | 3.1 ± 0.054 | 3.06 ± 0.045 |
| RDEMSKAELPQWYTLQS [MED8] | 2.92 ± 0.05 | 3.12 ± 0.043 | 2.87 ± 0.038 | 3.01 ± 0.043 |
| RDVMCTDGVIGSRTTTN [RPO31] | 3.2 ± 0.11 | 3.48 ± 0.084 | 3.16 ± 0.084 | 3.16 ± 0.052 |
| RDYQRINKNSKIALREY [POP4] | 2.77 ± 0.081 | 2.29 ± 0.053 | 2.69 ± 0.076 | 2.73 ± 0.063 |
| REAYIENFAKGEHISAI [SWP82] | 2.98 ± 0.07 | 3.11 ± 0.089 | 2.99 ± 0.061 | 3.07 ± 0.067 |
| REIDALKKQLHVSHEAM [YIL149C/MLP2] | 2.88 ± 0.05 | 2.97 ± 0.047 | 2.91 ± 0.048 | 2.82 ± 0.049 |
| REISNFSKGDADVLVDR [SRP72] | 3.22 ± 0.098 | 3.19 ± 0.096 | 3.03 ± 0.097 | 3.06 ± 0.079 |
| REKALNEEAEARRLKNR [RPL19A] | 3.21 ± 0.075 | 3.15 ± 0.11 | 3.09 ± 0.095 | 3.24 ± 0.066 |
| RELILAKKQNYKLTNDE [YCG1] | 3.37 ± 0.067 | 3.35 ± 0.053 | 3.23 ± 0.05 | 3.29 ± 0.041 |
| RELREVIELPLKNPEIF [RPT4] | 2.71 ± 0.14 | 3.73 ± 0.27 | 3.08 ± 0.18 | 3.06 ± 0.088 |
| REMRRKVYAQLLESYKT [RPN7] | 2.36 ± 0.081 | 2.96 ± 0.14 | 2.32 ± 0.18 | 2.7 ± 0.09 |
| RETNDDIWRVAGKFELL [SNF2] | 2.54 ± 0.067 | 2.26 ± 0.065 | 2.43 ± 0.076 | 2.8 ± 0.066 |
| RFELHGDMTNSDAQSNL [REC8] | 2.93 ± 0.27 | 3.58 ± 0.13 | 2.9 ± 0.17 | 3.22 ± 0.095 |
| RFFWKRSTNKKSKILRK [UBP6] | 1.19 ± 0.19 | – | – | 1.28 ± 0.16 |
| RFRKLTSQEINDRLEAL [PRE8] | 3.07 ± 0.14 | 3.01 ± 0.089 | 2.52 ± 0.24 | 2.91 ± 0.11 |
| RFTPGSFTNYITRSFKE [RPS0A] | 3.03 ± 0.16 | 3.36 ± 0.1 | 2.93 ± 0.1 | 3.07 ± 0.11 |

| Sequence | protein stability index (doa10∆) | protein stability index (pdr5∆) | protein stability index (san1∆) | protein stability index (ubr1∆) |
| --- | --- | --- | --- | --- |
| RGAHVEKTMVKKNLGRL [PRP8] | – | 3.29 ± 0.16 | 3.14 ± 0.18 | – |
| RGPRNSREAVRHFGMGP [RPL18A] | 2.53 ± 0.25 | 2.86 ± 0.18 | – | – |
| RGPYLVIVPLSTLSNWS [SNF2] | 1.84 ± 0.051 | 2.32 ± 0.062 | 2.17 ± 0.065 | 2.41 ± 0.035 |
| RGRSVMKESVVEINSSE [ESC2] | 3.15 ± 0.11 | 2.83 ± 0.14 | 3.09 ± 0.17 | 2.98 ± 0.1 |
| RGTLTKNLKHIDVTFTK [RPL9A] | 3.32 ± 0.06 | 3.25 ± 0.067 | 3 ± 0.077 | 2.72 ± 0.065 |
| RGYWGTNLGQPHSLATK [RPS2] | 2.68 ± 0.23 | 3.18 ± 0.16 | 3.04 ± 0.1 | 2.85 ± 0.093 |
| RHGFNRSNTGALMRCSF [RPO21] | 2.71 ± 0.059 | 3.01 ± 0.064 | 2.85 ± 0.061 | 2.88 ± 0.079 |
| RHLRRTGKVSEFISIYS [RET1] | 1.48 ± 0.14 | 2.05 ± 0.13 | – | 1.37 ± 0.14 |
| RIENPEKYAAAAPAATS [RPP0] | 2.95 ± 0.085 | 3.22 ± 0.11 | 2.71 ± 0.094 | 3.16 ± 0.057 |
| RILKLGTQLATLKNRGL [YGR119C/NUP57] | 2.29 ± 0.078 | 2.57 ± 0.068 | 2.65 ± 0.081 | 2.84 ± 0.046 |
| RIRKLTGQNFLTSNISS [REC8] | 1.6 ± 0.056 | 1.79 ± 0.05 | 1.57 ± 0.093 | 1.53 ± 0.053 |
| RKKTPAGDWKYDRQLSS [FAS2] | 1.25 ± 0.066 | 2.43 ± 0.092 | 1.59 ± 0.19 | 1.32 ± 0.079 |
| RKNDNANDHDESIDVDM [SMC3] | 2.83 ± 0.24 | 2.72 ± 0.23 | 3.32 ± 0.11 | 3.19 ± 0.094 |
| RKNRYVILQSDLEEAYA [RPT3] | 2.41 ± 0.22 | 2.23 ± 0.15 | 2.1 ± 0.17 | 2.11 ± 0.11 |
| RKSAPVDSWDREFLKVD [SKP1] | 3.25 ± 0.13 | 3.27 ± 0.094 | 3.04 ± 0.1 | 3.19 ± 0.078 |
| RKSKLNLDNLQKVSQLE [POP4] | 2.89 ± 0.2 | – | – | – |
| RKTWKRQNTLSLWRYRK [RPL15A] | 3.45 ± 0.083 | 3.1 ± 0.074 | 3.3 ± 0.052 | 3.36 ± 0.046 |
| RKVEKEKNEKEREIKRR [UBP6] | 3.32 ± 0.056 | 3.27 ± 0.054 | 3.09 ± 0.053 | 3.17 ± 0.068 |
| RKWMEEKADYERELISN [YIL149C/MLP2] | 3.23 ± 0.045 | 3.35 ± 0.086 | 3.11 ± 0.04 | 3.31 ± 0.063 |
| RKYDLFQNLELETEQLS [SMC2] | 3.21 ± 0.073 | 3.1 ± 0.076 | 1.99 ± 0.17 | 2.17 ± 0.059 |
| RKYSFNYSSLPSPYKTT [YAR002W/NUP60] | 2.56 ± 0.054 | 2.8 ± 0.05 | 2.71 ± 0.058 | 2.71 ± 0.045 |
| RLAKSTENEIPNLIEKM [BRR2] | 1.62 ± 0.08 | 1.5 ± 0.052 | 1.75 ± 0.087 | 1.68 ± 0.058 |
| RLDNLQDIKKAKRVENF [DSN1] | 1.52 ± 0.059 | 1.42 ± 0.039 | 2.56 ± 0.074 | 2.56 ± 0.048 |
| RLIVDPNIADYITAKNN [PRP8] | 2.15 ± 0.076 | 2.22 ± 0.066 | 2.36 ± 0.26 | 2.08 ± 0.052 |
| RLKEINGWEKYLHNVEL [ISW2] | 2.97 ± 0.12 | – | – | 2.94 ± 0.057 |
| RLKGDIFCVGSGQTFAY [PRE2] | 2.39 ± 0.05 | 1.77 ± 0.041 | 2.25 ± 0.019 | 1.79 ± 0.044 |

From the supplement of paper PMC9732359
